First the molecules themselves.
B1: Gd11olS (germacradien-11-ol synthase; N-terminal domain of geosmin synthase) (Streptomyces coelicolor A3(2); V187A) (protein)
chain: MTQQPFQLPHFYLPHPARLNPHLDEARAHSTTWAREMGMLEGSGVWEQSDLEAHDYGLLCAYTHPDCDGPALSLITDWYVWVFFFDDHFLEKYKRSQDRLAGKAHLDRLPLFMPLDDAAGMPEPRNPVEAGLADLWTRTVPAMSADWRRRFAVATEHLLNESMWELSNINEGRVANPVEYIEMRRKAGGAPWSAGLVEYATAEVPAAVAGTRPLRVLMETFSDAVHLRNDLFSYQREVEDEGELSNGVLVLETFFGCTTQEAADLVNDVLTSRLHQFEHTAFTEVPAVALEKGLTPLEVAAVGAYTKGLQDWQSGGHEWHMRSSRYMNKGERPLAGWQALTGPGTSAADVGALLADAVAQRARSYT
notes: N-terminal domain, residues 1-366 of geosmin synthase; codon-optimized synthetic gene in pET28a, expressed in E. coli, purified to homogeneity; tag details in supplement
B2: Gd11olS (germacradien-11-ol synthase; N-terminal domain of geosmin synthase) (Streptomyces coelicolor A3(2); H320F) (protein)
chain: B1 chain with A187V, H320F
notes: as for B1
B3: Gd11olS (germacradien-11-ol synthase; N-terminal domain of geosmin synthase) (Streptomyces coelicolor A3(2); Q313N) (protein)
chain: B1 chain with A187V, Q313N
notes: as for B1
B4: Gd11olS (germacradien-11-ol synthase; N-terminal domain of geosmin synthase) (Streptomyces coelicolor A3(2); H320A) (protein)
chain: B1 chain with A187V, H320A
notes: as for B1
B5: Gd11olS (germacradien-11-ol synthase; N-terminal domain of geosmin synthase) (Streptomyces coelicolor A3(2); W312A) (protein)
chain: B1 chain with A187V, W312A
notes: as for B1
B6: Gd11olS (germacradien-11-ol synthase; N-terminal domain of geosmin synthase) (Streptomyces coelicolor A3(2); G188A) (protein)
chain: B1 chain with A187V, G188A
notes: as for B1
B7: Gd11olS (germacradien-11-ol synthase; N-terminal domain of geosmin synthase) (Streptomyces coelicolor A3(2); Q313A) (protein)
chain: B1 chain with A187V, Q313A
notes: as for B1
B8: Gd11olS (germacradien-11-ol synthase; N-terminal domain of geosmin synthase) (Streptomyces coelicolor A3(2); W312F) (protein)
chain: B1 chain with A187V, W312F
notes: as for B1
B9: Gd11olS (germacradien-11-ol synthase; N-terminal domain of geosmin synthase) (Streptomyces coelicolor A3(2); R228V) (protein)
chain: B1 chain with A187V, R228V
notes: as for B1
B10: Gd11olS (germacradien-11-ol synthase; N-terminal domain of geosmin synthase) (Streptomyces coelicolor A3(2)) (protein)
chain: B1 chain with A187V
notes: as for B1
B11: Gd11olS (germacradien-11-ol synthase; N-terminal domain of geosmin synthase) (Streptomyces coelicolor A3(2); G188S) (protein)
chain: B1 chain with A187V, G188S
notes: as for B1

Changes are numbered by the printed parent chain. Numbers in names are those of the source.

Substrate in the series: CC(C)=CCC/C(C)=C/CC/C(C)=C/CO[P@@](=O)(O)OP(=O)(O)O
The experiment in a line: steady-state kinetics of purified enzyme (details in supplement). The class given is biochemical, Streptomyces coelicolor. As to conditions: Mg2+-dependent enzyme; assay conditions in supplement. From the text: steady-state kinetics of purified enzyme (details in supplement) on Gd11olS (germacradien-11-ol synthase; N-terminal domain of geosmin synthase)
With B1, the Km – broadly, the concentration of substrate that gives half-maximal velocity – worked out at 0.3 ± 0.06 µM; the kcat (as a rule, the number of substrate molecules converted per active site and unit of time at saturation) was found to be 0.000194 ± 1e-07 s⁻¹.
In the case of B2, the Km worked out at 1.8 ± 0.5 µM and the kcat was 2.3e-05 ± 2e-07 s⁻¹.
Regarding B3, the Michaelis-Menten constant (Km) amounted to 0.5 ± 0.07 µM and the kcat is 5.02e-05 ± 1e-07 s⁻¹.
With B4, the Km stood at 1.12 ± 0.10 µM and the kcat is 3.8e-05 ± 1e-07 s⁻¹.
Take B5: the Km came out at 0.4 ± 0.07 µM and the kcat was determined as 4.02e-05 ± 1e-07 s⁻¹.
On to B6, for which the Km worked out at 3.8 ± 1.5 µM and the kcat was 3.7e-05 ± 5e-06 s⁻¹.
For B7 the same measures were 1.10 ± 0.14 µM and 6.9e-05 ± 2e-07 s⁻¹.
With B8, the Km was 0.9 ± 0.09 µM and the kcat was found to be 0.000255 ± 6e-07 s⁻¹.
As to B9, the Km turned out to be 0.8 ± 0.10 µM and the kcat was determined as 0.0001814 ± 4e-07 s⁻¹.
Turning to B10, the Km amounted to 0.5 ± 0.08 µM and the kcat worked out at 0.000524 ± 2e-07 s⁻¹.
Consider B11, for which the Km was 5.7 ± 0.9 µM and the kcat was 4.08e-05 ± 2e-06 s⁻¹.

These data come from paper PMC7886051, “Redesigning the Molecular Choreography to Prevent Hydroxylation in Germacradien-11-ol Synthase Catalysis” (ACS Catalysis, 2021).
